Here are results for four compounds from US20050282743A1, “Molecular interactions in cells” (Arbor Vita Corporation, priority 2001, published 2005).

Format in all cases: binding
Experiment [1] deals with PDZ-domain polypeptide (GST/PDZ fusion protein). The experiment can be described thus: Apparent affinity (Kd) by titration of PL peptide in the G assay. To be noted: PDZ TAX IP2, PDZ Domain 1; read-out: Peptide Optimal Conc (Kd by titration of the PL peptide). As to the method:
(§1) The third column labeled “Peptide Optimal Concentration” in the tables is a number reflective of the binding interaction between the PL protein and PDZ protein. […] The column labeled “Protein Optimal Concentration” refers to the protein concentration used to assay PL interaction (in ug/ml); a ‘0’ is indicative of 5 ug/ml protein concentration; any other value represents the concentration (in ug/ml) used to determine the dissociation constant for a given interaction.
(§2) The “A” and “G” assays described supra can be used to determine the “apparent affinity” of binding of a PDZ ligand peptide to a PDZ-domain polypeptide. Apparent affinity is determined based on the concentration of one molecule required to saturate the binding of a second molecule (e.g., the binding of a ligand to a receptor). Two particularly useful approaches for quantitation of apparent affinity of PDZ-ligand binding are provided infra.
(§3) In cases where satisfying the above criteria proves difficult, an alternative approach (infra) can be used.
(§4) (1) A fixed concentration of a PDZ-domain polypeptide and increasing concentrations of a labeled PL peptide (labeled with, for example, biotin or fluorescein, see TABLE 9 for representative peptide amino acid sequences) are mixed together in solution and allowed to react. In certain assays, peptide concentrations are 0.1 uM, 1 uM, 10 uM, 100 uM, 1 mM. In other assays, appropriate reaction times can range from 10 minutes to 2 days at temperatures ranging from 4° C. to 37° C. In some instances, the identical reaction can also be carried out using a non-PDZ domain-containing protein as a control (e.g., if the PDZ-domain polypeptide is fusion protein, the fusion partner can be used).
(§5) (2) PDZ-ligand complexes can be separated from unbound labeled peptide using a variety of methods known in the art.
(§6) (3) The PDZ-ligand complex is detected based on presence of the label on the peptide ligand using a variety of methods and detectors known to one of skill in the art. For example, if the label is fluorescein and the separation is achieved using HPSEC, an in-line fluorescence detector can be used. The binding can also be detected as described supra for the G assay.

Experiment [2] deals with T1, PDZ protein (GST-PDZ fusion) (Homo sapiens, UniProt O14908).
T1 construct: made in house; host or cells: E. coli (DH5alpha, BL21 or JM109)
T1 sequence (O14908 1-333): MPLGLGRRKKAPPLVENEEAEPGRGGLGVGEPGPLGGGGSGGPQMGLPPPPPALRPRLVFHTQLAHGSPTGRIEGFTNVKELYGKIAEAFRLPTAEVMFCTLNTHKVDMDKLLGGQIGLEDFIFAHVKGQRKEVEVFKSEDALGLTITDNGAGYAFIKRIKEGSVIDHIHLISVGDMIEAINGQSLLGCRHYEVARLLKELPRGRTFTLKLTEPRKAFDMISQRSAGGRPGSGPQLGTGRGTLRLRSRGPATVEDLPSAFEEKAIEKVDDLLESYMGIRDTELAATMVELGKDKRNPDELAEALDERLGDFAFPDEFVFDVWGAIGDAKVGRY
Nature of the experiment: G' assay (10 uM PL peptide), results of TABLE 7 and TABLE 12. The note with it: PDZ TAX IP2, PDZ Domain 1. A digest of the protocol:
(§7)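 Biotin-PL peptide (N-term label), 10 uM vs GST-PDZ; protein 5 ug/ml by default. A450 nm binned: 1 = 0-1, 2 = 1-2, 3 = 2-3, 4 = 3-4, 5 = >4 on >2 repeats, 0 = no binding.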

For experiment [3], the target named is T2, PDZ protein (GST-PDZ fusion) (Homo sapiens, UniProt Q6P0Q8).
T2 construct: made in house; host or cells: E. coli (DH5alpha, BL21 or JM109)
Described as above. The gist of the method: as §7

The target of experiment [4] is T3, PDZ protein (GST-PDZ fusion) (Homo sapiens, UniProt Q12923).
T3 construct: made in house; host or cells: E. coli (DH5alpha, BL21 or JM109)
The description is as above. A digest of the protocol:
as §7

Experiment [5] addresses T4, PDZ protein (GST-PDZ fusion) (Homo sapiens, UniProt P55196).
T4 construct: made in house; host or cells: E. coli (DH5alpha, BL21 or JM109)
The description is as above. To be noted: PDZ AF6, PDZ Domain 1. A digest of the protocol:
as §7

Experiment [6] addresses T5, PDZ protein (GST-PDZ fusion) (Homo sapiens, UniProt Q8NI35).
T5 construct: made in house; host or cells: E. coli (DH5alpha, BL21 or JM109)
Described as above. To be noted: PDZ INADL, PDZ Domain 3. A digest of the protocol: as §7

Experiment [7] deals with T6, PDZ-domain polypeptide (GST/PDZ fusion protein) (Homo sapiens, UniProt Q12923).
T6 construct: made in house; host or cells: E. coli (DH5alpha, BL21 or JM109)
Nature of the experiment: Apparent affinity (Kd) by titration of PL peptide in the G assay. To be noted: PDZ PTPL-1, PDZ Domain 2; read-out: Peptide Optimal Conc (non-zero value: Kd by titration of the PL peptide). As to the method:
as §1, §2, §3, §4, §5, §6

The target of experiment [8] is T7, PDZ-domain polypeptide (GST/PDZ fusion protein) (Homo sapiens, UniProt Q5TCQ9).
T7 construct: made in house; host or cells: E. coli (DH5alpha, BL21 or JM109)
T7 sequence (Q5TCQ9 1-1481): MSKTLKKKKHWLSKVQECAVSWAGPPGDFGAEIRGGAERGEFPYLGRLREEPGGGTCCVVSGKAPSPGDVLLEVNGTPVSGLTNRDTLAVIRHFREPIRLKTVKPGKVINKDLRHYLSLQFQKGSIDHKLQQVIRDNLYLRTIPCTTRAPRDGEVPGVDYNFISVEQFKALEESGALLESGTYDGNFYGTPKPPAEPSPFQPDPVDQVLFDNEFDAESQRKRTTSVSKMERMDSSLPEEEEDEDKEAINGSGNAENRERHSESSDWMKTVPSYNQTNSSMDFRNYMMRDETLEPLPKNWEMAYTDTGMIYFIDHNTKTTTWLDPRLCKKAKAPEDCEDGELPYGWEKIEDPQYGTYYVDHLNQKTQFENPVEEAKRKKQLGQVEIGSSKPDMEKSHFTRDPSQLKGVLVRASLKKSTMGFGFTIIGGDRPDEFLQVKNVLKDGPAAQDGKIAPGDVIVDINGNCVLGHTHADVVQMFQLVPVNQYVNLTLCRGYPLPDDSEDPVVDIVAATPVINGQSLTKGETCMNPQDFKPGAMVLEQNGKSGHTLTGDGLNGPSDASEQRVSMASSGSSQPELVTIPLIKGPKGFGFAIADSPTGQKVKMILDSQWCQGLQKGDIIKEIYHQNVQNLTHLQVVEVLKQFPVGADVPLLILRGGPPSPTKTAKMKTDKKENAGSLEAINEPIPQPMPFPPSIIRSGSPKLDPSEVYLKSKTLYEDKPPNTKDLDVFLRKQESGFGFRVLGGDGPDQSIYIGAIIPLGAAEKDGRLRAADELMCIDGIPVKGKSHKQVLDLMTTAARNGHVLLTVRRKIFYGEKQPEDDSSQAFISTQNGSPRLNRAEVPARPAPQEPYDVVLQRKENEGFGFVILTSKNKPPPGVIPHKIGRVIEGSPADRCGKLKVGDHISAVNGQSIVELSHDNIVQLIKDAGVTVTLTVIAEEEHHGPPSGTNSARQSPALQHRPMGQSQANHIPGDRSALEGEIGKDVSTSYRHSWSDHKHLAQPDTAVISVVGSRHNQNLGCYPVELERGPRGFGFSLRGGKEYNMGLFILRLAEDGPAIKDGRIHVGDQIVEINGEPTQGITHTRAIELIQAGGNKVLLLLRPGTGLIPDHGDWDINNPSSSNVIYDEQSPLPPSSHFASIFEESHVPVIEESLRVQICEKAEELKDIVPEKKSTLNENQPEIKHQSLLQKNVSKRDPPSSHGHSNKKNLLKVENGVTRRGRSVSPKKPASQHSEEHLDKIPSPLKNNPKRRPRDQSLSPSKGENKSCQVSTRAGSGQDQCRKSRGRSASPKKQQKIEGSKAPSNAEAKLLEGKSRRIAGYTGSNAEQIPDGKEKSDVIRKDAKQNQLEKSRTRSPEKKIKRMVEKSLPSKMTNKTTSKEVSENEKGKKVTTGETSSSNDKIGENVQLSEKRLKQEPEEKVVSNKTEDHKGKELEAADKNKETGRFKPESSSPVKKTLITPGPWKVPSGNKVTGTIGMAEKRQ
Described as above. The note with it: PDZ KIAA1634, PDZ Domain 2; read-out: Peptide Optimal Conc (non-zero value: Kd by titration of the PL peptide). The method, then: as §1, §2, §3, §4, §5, §6

The target of experiment [9] is T8, PDZ protein (GST-PDZ fusion) (Homo sapiens, UniProt Q5TCQ9).
T8 construct: made in house; host or cells: E. coli (DH5alpha, BL21 or JM109)
T8 sequence (Q5TCQ9 1-1481): T7 sequence (Q5TCQ9 1-1481)
The experiment can be described thus: G' assay (10 uM PL peptide), results of TABLE 7 and TABLE 12. The gist of the method: as §7

Experiment [10] has as its target T9, PDZ protein (GST-PDZ fusion) (Homo sapiens, UniProt Q02410).
T9 construct: made in house; host or cells: E. coli (DH5alpha, BL21 or JM109)
T9 sequence (Q02410 1-837): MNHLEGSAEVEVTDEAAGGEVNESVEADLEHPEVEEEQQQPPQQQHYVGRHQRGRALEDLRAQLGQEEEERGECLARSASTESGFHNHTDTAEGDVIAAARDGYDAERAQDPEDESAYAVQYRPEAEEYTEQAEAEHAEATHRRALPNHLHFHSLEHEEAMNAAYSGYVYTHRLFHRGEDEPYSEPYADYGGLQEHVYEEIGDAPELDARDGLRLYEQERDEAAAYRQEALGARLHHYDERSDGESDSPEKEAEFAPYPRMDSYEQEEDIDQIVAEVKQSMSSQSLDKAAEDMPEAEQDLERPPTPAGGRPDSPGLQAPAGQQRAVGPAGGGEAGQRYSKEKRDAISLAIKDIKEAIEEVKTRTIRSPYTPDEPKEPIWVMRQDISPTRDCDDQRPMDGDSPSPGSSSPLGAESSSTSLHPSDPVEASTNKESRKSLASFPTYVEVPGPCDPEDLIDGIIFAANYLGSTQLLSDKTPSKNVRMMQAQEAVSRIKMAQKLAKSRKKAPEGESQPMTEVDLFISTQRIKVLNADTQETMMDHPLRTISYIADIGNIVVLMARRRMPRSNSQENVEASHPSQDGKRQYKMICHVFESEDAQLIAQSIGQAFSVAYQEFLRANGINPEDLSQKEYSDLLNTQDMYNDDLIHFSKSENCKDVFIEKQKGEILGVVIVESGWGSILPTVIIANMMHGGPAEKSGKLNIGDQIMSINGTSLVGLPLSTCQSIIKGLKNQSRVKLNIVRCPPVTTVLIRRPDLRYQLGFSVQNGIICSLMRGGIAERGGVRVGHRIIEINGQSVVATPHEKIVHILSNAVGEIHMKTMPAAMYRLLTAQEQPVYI
Described as above. The note with it: PDZ Mint 1, PDZ Domain 1, 2. The gist of the method:
as §7

Ends that are not written are not given here. Peptide text beside a SMILES is read from it. * marks the point of attachment. Biotin = O=C1N[C@H]2[C@H](CS[C@H]2CCCCC(=O)*)N1

T4 sequence (P55196 whole entry, the tested form may be a part): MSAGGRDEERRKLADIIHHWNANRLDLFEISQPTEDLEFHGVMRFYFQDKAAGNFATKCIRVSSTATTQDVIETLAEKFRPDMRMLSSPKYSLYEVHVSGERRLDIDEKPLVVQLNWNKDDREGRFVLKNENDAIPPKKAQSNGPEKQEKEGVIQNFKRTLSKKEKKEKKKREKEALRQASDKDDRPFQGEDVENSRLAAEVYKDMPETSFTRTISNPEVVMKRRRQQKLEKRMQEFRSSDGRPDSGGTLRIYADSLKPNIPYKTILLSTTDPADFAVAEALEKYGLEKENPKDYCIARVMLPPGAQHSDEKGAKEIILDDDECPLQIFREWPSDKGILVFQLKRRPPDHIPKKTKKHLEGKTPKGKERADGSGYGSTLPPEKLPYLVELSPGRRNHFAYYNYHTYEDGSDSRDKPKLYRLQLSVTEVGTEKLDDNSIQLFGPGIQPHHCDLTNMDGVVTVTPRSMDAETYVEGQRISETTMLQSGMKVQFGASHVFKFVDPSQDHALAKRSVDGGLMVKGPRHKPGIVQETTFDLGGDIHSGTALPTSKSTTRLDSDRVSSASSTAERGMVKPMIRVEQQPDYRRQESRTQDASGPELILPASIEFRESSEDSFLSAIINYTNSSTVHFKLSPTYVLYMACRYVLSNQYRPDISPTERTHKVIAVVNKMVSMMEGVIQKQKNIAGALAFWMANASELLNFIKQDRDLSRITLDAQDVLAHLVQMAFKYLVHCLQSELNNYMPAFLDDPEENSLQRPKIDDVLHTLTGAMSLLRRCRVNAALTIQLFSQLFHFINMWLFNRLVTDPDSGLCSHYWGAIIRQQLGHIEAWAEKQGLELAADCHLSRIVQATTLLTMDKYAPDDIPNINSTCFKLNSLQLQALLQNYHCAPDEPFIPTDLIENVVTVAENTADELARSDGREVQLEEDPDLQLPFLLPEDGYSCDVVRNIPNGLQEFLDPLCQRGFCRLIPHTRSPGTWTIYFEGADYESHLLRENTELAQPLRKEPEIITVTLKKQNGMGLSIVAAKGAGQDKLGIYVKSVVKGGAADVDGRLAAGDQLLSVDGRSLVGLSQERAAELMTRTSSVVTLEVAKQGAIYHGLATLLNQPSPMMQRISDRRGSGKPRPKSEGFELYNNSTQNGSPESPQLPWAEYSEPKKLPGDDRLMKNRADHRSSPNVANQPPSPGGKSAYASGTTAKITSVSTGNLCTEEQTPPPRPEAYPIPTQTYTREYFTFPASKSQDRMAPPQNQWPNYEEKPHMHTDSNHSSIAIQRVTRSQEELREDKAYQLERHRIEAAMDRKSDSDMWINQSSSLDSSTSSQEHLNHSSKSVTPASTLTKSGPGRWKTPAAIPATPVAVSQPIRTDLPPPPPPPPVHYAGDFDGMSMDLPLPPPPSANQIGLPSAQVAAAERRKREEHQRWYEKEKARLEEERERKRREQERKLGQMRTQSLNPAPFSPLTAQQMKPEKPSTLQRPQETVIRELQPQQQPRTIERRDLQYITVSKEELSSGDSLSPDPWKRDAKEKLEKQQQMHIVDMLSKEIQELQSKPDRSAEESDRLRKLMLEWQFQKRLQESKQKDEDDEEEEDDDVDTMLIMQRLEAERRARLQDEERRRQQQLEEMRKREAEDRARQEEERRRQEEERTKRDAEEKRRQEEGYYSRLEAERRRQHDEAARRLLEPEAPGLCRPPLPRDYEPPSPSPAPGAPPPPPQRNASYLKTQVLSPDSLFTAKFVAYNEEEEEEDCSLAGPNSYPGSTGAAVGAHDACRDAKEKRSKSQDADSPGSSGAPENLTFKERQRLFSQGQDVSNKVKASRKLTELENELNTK
T2 sequence (Q6P0Q8 whole entry, the tested form may be a part): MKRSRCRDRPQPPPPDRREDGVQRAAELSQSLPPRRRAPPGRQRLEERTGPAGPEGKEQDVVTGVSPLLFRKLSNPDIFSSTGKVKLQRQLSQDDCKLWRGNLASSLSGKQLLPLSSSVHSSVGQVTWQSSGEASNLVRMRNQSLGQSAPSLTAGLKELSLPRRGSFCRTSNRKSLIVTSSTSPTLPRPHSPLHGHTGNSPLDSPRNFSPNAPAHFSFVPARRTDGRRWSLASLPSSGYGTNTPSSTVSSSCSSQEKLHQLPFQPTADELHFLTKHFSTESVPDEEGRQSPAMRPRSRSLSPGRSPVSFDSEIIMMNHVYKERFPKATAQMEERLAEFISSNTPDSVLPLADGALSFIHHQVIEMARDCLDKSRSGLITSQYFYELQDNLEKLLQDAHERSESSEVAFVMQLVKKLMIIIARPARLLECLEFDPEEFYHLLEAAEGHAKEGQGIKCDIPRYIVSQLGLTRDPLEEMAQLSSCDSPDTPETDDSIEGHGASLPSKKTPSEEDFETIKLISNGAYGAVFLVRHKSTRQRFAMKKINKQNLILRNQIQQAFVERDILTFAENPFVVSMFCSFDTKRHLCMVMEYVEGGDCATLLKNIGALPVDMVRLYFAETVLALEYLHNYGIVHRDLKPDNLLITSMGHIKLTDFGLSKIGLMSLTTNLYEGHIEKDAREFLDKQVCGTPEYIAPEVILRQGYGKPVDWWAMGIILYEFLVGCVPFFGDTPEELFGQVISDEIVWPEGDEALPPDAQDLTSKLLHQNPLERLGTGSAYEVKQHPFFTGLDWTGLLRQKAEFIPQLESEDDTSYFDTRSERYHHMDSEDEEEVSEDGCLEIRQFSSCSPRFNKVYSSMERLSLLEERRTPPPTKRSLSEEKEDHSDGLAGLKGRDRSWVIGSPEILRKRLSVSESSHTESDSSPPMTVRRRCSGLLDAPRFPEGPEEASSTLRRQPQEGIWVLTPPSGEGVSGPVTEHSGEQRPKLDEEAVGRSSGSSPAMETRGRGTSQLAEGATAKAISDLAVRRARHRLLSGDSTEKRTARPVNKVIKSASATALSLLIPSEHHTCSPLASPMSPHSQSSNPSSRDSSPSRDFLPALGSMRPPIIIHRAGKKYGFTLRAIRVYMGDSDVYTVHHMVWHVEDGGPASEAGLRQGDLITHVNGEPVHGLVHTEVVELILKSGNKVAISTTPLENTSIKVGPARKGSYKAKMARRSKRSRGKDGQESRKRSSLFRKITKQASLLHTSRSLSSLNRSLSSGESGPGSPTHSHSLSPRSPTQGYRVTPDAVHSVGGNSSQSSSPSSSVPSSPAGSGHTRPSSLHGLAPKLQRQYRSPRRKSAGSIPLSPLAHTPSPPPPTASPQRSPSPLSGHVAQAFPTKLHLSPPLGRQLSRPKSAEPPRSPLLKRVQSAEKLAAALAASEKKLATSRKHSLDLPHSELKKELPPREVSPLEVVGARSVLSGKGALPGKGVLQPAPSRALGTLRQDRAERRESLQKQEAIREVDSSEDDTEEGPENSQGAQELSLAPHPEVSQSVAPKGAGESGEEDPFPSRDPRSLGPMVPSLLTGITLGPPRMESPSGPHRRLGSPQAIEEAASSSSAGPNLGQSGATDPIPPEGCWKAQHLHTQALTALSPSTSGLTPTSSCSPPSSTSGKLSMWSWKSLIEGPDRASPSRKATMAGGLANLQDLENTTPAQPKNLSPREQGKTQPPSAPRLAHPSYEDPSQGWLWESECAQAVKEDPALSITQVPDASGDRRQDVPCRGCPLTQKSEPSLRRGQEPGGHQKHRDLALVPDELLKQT

For the compound AKT-1 (Biotin-VDSERRPHFPQFSYSASSTA), the Kd in experiment [1] amounted to 2.5 µM. Further, the Classification is given as 4 (A450 nm 3-4) in [2]; 1 (A450 nm 0-1) in [3] (PDZ KIAA0807(S), PDZ Domain 1); 1 (A450 nm 0-1) in [3] (PDZ KIAA807, PDZ Domain not given).
“YSQPSARSEGEFKQTSSFLV (Biotin-YSQPSARSEGEFKQTSSFLV) [JAM (junctional adhesion molecule)]”: the Classification in experiment [4] (PDZ PTPL-1, PDZ Domain 4) is on record as 1 (A450 nm 0-1); in experiment [5], 1 (A450 nm 0-1); in [6] it was 1 (A450 nm 0-1).
As for `CC[C@H](C)[C@H](NC(=O)CCCC[C@@H]1SC[C@@H]2NC(=O)N[C@@H]21)C(=O)N[C@H](C(=O)N[C@H](C(=O)N[C@H](C(=O)N[C@H](C(=O)N[C@H](C(=O)N[C@@H](CCSC)C(=O)N[C@H](C(=O)N[C@H](C(=O)N[C@@H](CC(N)=O)C(=O)N[C@H](C(=O)N[C@@H](CC(=O)O)C(=O)N[C@@H](Cc1ccccc1)C(=O)N1CCC[C@H]1C(=O)N1CCC[C@H]1C(=O)N[C@@H](CCCCN)C(=O)N[C@@H](CCC(=O)O)C(=O)N[C@@H](CO)C(=O)N[C@@H](CO)C(=O)N[C@@H](CC(C)C)C(=O)O)C(C)C)[C@@H](C)O)C(C)C)[C@@H](C)O)C(C)C)C(C)C)[C@@H](C)O)C(C)C` [ActRIIA] (Biotin-IVTVVTMVTNVDFPPKESSL-OH; C-terminus assumed), the Kd in experiment [7] and in experiment [8] was 5 µM in each case. For the same compound, the Classification in experiment [9] (PDZ KIAA1634, PDZ Domain 2) is given as 2 (A450 nm 1-2); in [4] (PDZ PTPL-1, PDZ Domain 2), 3 (A450 nm 2-3).
With “SSPDSSYQGKGFVMSRAMYV (Biotin-SSPDSSYQGKGFVMSRAMYV) [Nectin 2]”, the Classification is 1 (A450 nm 0-1) in [9] (PDZ KIAA1634, PDZ Domain 1); 2 (A450 nm 1-2) in experiment [10]; 2 (A450 nm 1-2) in experiment [5].
